Experiments:
[1] = biological target: CitERF33, split-YFP fusion (BiFC) (Citrus reticulata cv. Suavissima (Ougan))
[2] = biological target: CitCHS1 (citrus chalcone synthase 1), pGADT7 fusion (Citrus reticulata cv. Suavissima (Ougan))
[3] = biological target: CitCHS2 (citrus chalcone synthase 2), pGADT7 fusion (Citrus reticulata cv. Suavissima (Ougan))

| activation of the CitCHIL1 promoter by CitERF33 and CitRAV1 together (dual-luciferase assay in N. benthamiana leaves, LUC/REN against empty vector; 1.6-fold for CitERF33/EV or CitRAV1/EV) [1] | k cat value of CitCHS1 for malonyl-CoA with CitCHIL1 against without it (in vitro chalcone synthase assay, purified recombinant proteins) [2] | k cat value of CitCHS1 for p-coumaroyl-CoA with CitCHIL1 against without it (in vitro chalcone synthase assay, purified recombinant proteins) [2] | k cat value of CitCHS2 for malonyl-CoA with CitCHIL1 against without it (in vitro chalcone synthase assay, purified recombinant proteins) [3] | k cat value of CitCHS2 for p-coumaroyl-CoA with CitCHIL1 against without it (in vitro chalcone synthase assay, purified recombinant proteins) [3] | Substance |
| --- | --- | --- | --- | --- | --- |
| 10.6 fold | – | – | – | – | CitRAV1, split-YFP fusion (BiFC) (natural protein) |
| – | 1.86 fold | 1.81 fold | 1.33 fold | 1.43 fold | CitCHIL1 (citrus type IV chalcone isomerase), pGBKT7 fusion (natural protein) |
